Where two headings read alike, the source gives them in different places. One block for each substance: values may come before it.
Assays:
[1] = target: CD16a (FcγRIIIa) on Jurkat NFAT reporter cells (UniProt P08637); test: cell-based or functional assay
[2] = target: Human F158 FcγRIIIa (Example 8) (human) (UniProt P08637); test: BLI, receptor on SAX sensor
[3] = target: Human FcγRI (Example 8) (human) (UniProt P12314); test: BLI, receptor on SAX sensor
[4] = target: Human H131 FcγRIIa (Example 8) (human) (UniProt P12318); test: BLI, receptor on SAX sensor
[5] = target: Human V158 FcγRIIIa (Example 8) (human) (UniProt P08637); test: BLI, receptor on SAX sensor
[6] = target: Human F158 FcγRIIIa (Example 8) (human) (UniProt P08637); test: BLI; ratio to KD of the unconjugated antibody
[7] = target: Human FcγRI (Example 8) (human) (UniProt P12314); test: BLI; ratio to KD of the unconjugated antibody
[8] = target: Human V158 FcγRIIIa (Example 8) (human) (UniProt P08637); test: BLI; ratio to KD of the unconjugated antibody
[9] = target: CD16a (FcγRIIIa) on Jurkat NFAT reporter cells (UniProt P08637)
[10] = target: CD16a (FcγRIIIa) on Jurkat NFAT reporter cells (UniProt P08637); remark: listed apart in the source

Chain of CD16a (FcγRIIIa) on Jurkat NFAT reporter cells (P08637 17-254 limits assumed): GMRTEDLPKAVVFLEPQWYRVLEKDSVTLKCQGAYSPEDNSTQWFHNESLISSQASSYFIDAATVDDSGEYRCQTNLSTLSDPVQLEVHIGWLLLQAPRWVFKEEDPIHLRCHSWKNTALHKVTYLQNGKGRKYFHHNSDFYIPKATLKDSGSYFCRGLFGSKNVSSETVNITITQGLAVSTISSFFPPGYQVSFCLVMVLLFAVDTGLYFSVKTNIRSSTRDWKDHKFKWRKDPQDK

CD16a NFAT EC50 [1]: 0.7 ng/mL
Kd [2]: 95 nM
koff [2]: 0.049 s⁻¹
kon [2]: 520000 M⁻¹ s⁻¹
Kd [3]: 0.12 nM
koff [3]: 6.8e-05 s⁻¹
kon [3]: 590000 M⁻¹ s⁻¹
Kd [4]: 2100 nM
koff [4]: 0.38 s⁻¹
kon [4]: 190000 M⁻¹ s⁻¹
Kd [5]: 37 nM
koff [5]: 0.028 s⁻¹
kon [5]: 750000 M⁻¹ s⁻¹
Substance: Anti-HER2 S239D A330L I332E (antibody)

CD16a NFAT EC50 [1]: 83.5 ng/mL
Kd [2]: 3800 nM
koff [2]: 0.077 s⁻¹
kon [2]: 20000 M⁻¹ s⁻¹
Kd [3]: 1.2 nM
koff [3]: 0.00011 s⁻¹
kon [3]: 95000 M⁻¹ s⁻¹
Kd [5]: 2900 nM
koff [5]: 0.085 s⁻¹
kon [5]: 29000 M⁻¹ s⁻¹
KD Fold change [6]: 40 fold
KD Fold change [7]: 10 fold
KD Fold change [8]: 78.4 fold
Substance: Anti-HER2 S239D A330L I332E-mcPEG12(10) (antibody)

CD16a NFAT EC50 [1]: 1.5 ng/mL
Kd [3]: 0.1 nM
Substance: Anti-HER2 S239D I332E (antibody)

Kd [3]: 1 nM
Substance: Anti-HER2 S239D I332E-mcPEG12(8) (antibody)

CD16a NFAT EC50 [1]: 71.2 ng/mL
Substance: Anti-HER2 S239D I332E-mcPEG12(10) (antibody)

CD16a NFAT EC50 [1]: > 2000 ng/mL
Kd [3]: 9 nM
Substance: Anti-HER2-mcPEG12(8) (antibody)

EC50 (read off the curve), FcγRIIIa NFAT reporter assay [9]: 0.7 ng/mL
Substance: obinituzumab-AF (antibody)

EC50 (read off the curve), FcγRIIIa NFAT reporter assay [9]: 7 ng/mL
Substance: obinituzumab-WT (antibody)

EC50 (read off the curve), FcγRIIIa NFAT reporter assay [10]: 1 ng/mL
Substance: rituximab-AF (antibody)

EC50 (read off the curve), FcγRIIIa NFAT reporter assay [10]: 8 ng/mL
Substance: rituximab-WT (antibody)

Reference: patent publication US20240173421A1
